One series has as its system mice. The conditions noted are these: administration of C75 to mice, reported; cited from earlier work.
The target in series [1] is T1, FAS (Mus musculus, UniProt P19096).
T1 construct: cell lysates were prepared, and the enzyme activity of FAS was measured; endogenous in cells; host or cells: 3T3-L1 cells (differentiating or differentiated)
Kind of series: FAS enzyme activity in lysates of loaded 3T3-L1 cells (malonyl-CoA consumption). Type of series: cell-based. The note with it: C75 25 μM versus AIM 5 μg/mL, schedules (d) and (f). How it is done:
Whether AIM affected an enzyme activity of FAS or not was examined.
In addition, as a schedule (f) similar to the above-mentioned schedule (e), AIM was loaded for 4 days (day 8 to day 12) after the 3T3-L1 cells differentiated, subsequently the cells were collected on the 10th day (day 12) after the initiation of the differentiation induction, cell lysates were prepared, and the enzyme activity of FAS was measured. The enzyme activity of FAS was measured based on a consumption amount of malonyl-CoA.
(§1) In addition, using a FAS inhibitor (C75) in place of AIM, the FAS inhibitor at a concentration of 25 μM was loaded according to the schedules (d) and (f), and as was the case with the above-mentioned AIM, the cells were collected on the 2nd day (day 4: schedule (d)) and 10th day (day 12: schedule (f)) after the initiation of the differentiation induction, and the enzyme activity of FAS was measured.
Further, for comparison, the cells cultured without loading AIM in the above-mentioned schedule (a) were also collected at times of the 2nd day (day 4) and 10th day (day 12) after the initiation of the differentiation induction, and the enzyme activity of FAS was measured.
FIG. 11B and FIG. 11C illustrate the results of measuring the FAS enzyme activity (Fatty acid synthase activity) (nmol NADPH/min/mg protein). FIG. 11B illustrates the results obtained on the 2nd day (day 4) after the initiation of the differentiation induction in the case of loading no AIM according to the schedule (a) (None), the case of loading AIM according to the schedule (d) (AIM (5 μg/mL)), and the case of loading the FAS inhibitor according to the schedule (d) (C75 (25 μM)). FIG. 11C illustrates the results obtained on the 10th day (day 12) after the initiation of the differentiation induction in the case of loading no AIM according to the schedule (a) (None), the case of loading AIM according to the schedule (f) (AIM (5 μg/mL)), and the case of loading the FAS inhibitor according to the schedule (f) (C75 (25 μM)).

Series [2] deals with T2, FAS (Homo sapiens, UniProt P49327).
T2 construct: expressed in transfected cells; host or cells: HEK293T
Kind of series: Co-immunoprecipitation of HA-tagged AIM and FLAG-tagged FAS in HEK293T cells. In kind it is binding. The note with it: HEK293T cells co-expressing HA-tagged mouse AIM and FLAG-tagged FAS, anti-FLAG or anti-HA antibody. How it is done: Thus, in order to confirm the fact, first, HEK293T cells which co-expressed both AIM (mouse AIM) fused with an HA-tag and FAS fused with a FLAG-tag were produced. Also, the HEK293T cells were collected after being cultured for a predetermined period of time, its cell lysate was prepared, and an immunoprecipitation was performed using an anti-FLAG antibody.
In addition, a co-immunoprecipitation study was performed using HEK293T cells which express both FAS tagged with FLAG and mouse AIM tagged with HA, and an anti-FLAG antibody or an anti-HA antibody.

The test system of the next series is 3T3-L1 preadipocytes. The series is described as follows: Differentiation of 3T3-L1 preadipocytes into mature adipocytes, oil-red-o staining. The note with it: mouse AIM and human AIM compared, in vitro. Type of series: cell-based, mouse. How it is done: In order to examine how AIM produced by the macrophages infiltrating the adipose tissues works on surrounding adipocytes, an experiment in which AIM was loaded during a culture process of differentiating 3T3-L1 preadipocytes into the mature adipocytes was performed.
A recombinant mouse AIM protein and a recombinant human AIM protein were used as AIM. Those recombinant AIM proteins were prepared by culturing human-derived HEK293T cells transfected with a vector expressing mouse AIM or human AIM and isolating and purifying the protein from its culture supernatant. The same recombinant AIM proteins were also used as AIM in other examples shown below. AIM was loaded by adding AIM at a concentration of 5 μg/mL to the culture medium.
Differentiation induction (Induction) of the 3T3-L1 cells was initiated by first culturing the 3T3-L1 cells for 4 days (day −2 to day 2) to proliferate the cells (Cell proliferation) and subsequently culturing the cells in a culture medium containing insulin, dexamethasone (DEX), and isobutylmethylxanthine (IBMX) for 2 days (day 2 to day 4). The differentiation induction was further continued by culturing the cells in a culture medium containing insulin for 2 days (day 4 to day 6).
After the period of the differentiation induction (day 2 to day 6), the culture was continued in a culture medium not containing those differentiation-inducing factors. Then, the cells on the 10th day (day 12) after the initiation of the stimuli for differentiation induction were stained with oil-red-o, and the differentiation of the 3T3-L1 cells to mature adipocytes was observed.
as §1
FIG. 12A and FIG. 12B show the results of staining the cells with oil-red-o and analyzing the gene expression by RT-PCR on the 2nd day (day 4) after the initiation of the differentiation induction in the case of loading no AIM according to the schedule (a) (None), the case of loading AIM according to the schedule (d) (AIM (5 μg/mL)), and the case of loading the FAS inhibitor according to the schedule (d) (C75 (25 μM)), respectively.

For series [3], the system named is mature adipocytes (differentiated 3T3-L1 cells). Kind of series: Induction of lipolysis in mature 3T3-L1 adipocytes (lipid droplets, glycerol and free fatty acid efflux). Type of series: cell-based, mouse. The note with it: mouse AIM and human AIM compared, same range of concentrations in vitro. How it is done:
The effect of AIM on mature adipocytes was examined.
Then, the cells on the 10th day (day 12) after the initiation of the stimuli for differentiation induction were stained with oil-red-o. The number of cells having lipid droplets was counted. Further, the diameter of lipid droplets was measured in the cells having lipid droplets. For comparison, the number of the cells was counted and the diameter of lipid droplets was measured for the cells cultured in the above-mentioned schedules (a) and (d).
Further, the supernatant of the culture medium after the cells were cultured while loading AIM according to the schedule (e) was collected, and amounts of glycerol and free fatty acid (FFA) contained in the supernatant were measured by ELISA. For the comparison, the amounts of glycerol and free fatty acid in the culture supernatant obtained according to the schedule (a) were also measured.
In order to avoid adsorption of free fatty acid to albumin contained in the culture medium, the culture medium supplemented with 10% FBS (fetal bovine serum) was exchanged to a serum-free culture medium on the 10th day (day 12) after the initiation of the differentiation induction, further the cells were cultured in the serum-free culture medium for 6 hours, and subsequently the amounts of glycerol and free fatty acid contained in the supernatant of the serum-free culture medium were measured.
FIG. 7A and FIG. 7B illustrate the evaluation results of the number (per 10^4 μm^2) of cells having lipid droplets (Droplet (+) cells) and the relative diameter of lipid droplets (%) obtained according to the schedules (a), (d), and (e) (Exp. a, d, and e), respectively. The relative diameter of lipid droplets illustrated in FIG. 7B was calculated by defining the diameter of lipid droplets in the cells obtained according to the schedule (a) without AIM loading as 100%. FIG. 8A and FIG. 8B illustrate the concentration of glycerol (Glycerol Efflux, mM) and the concentration of free fatty acid (FFA Efflux, ×10 mM) in the culture medium obtained according to the schedules (a) and (e) (Exp. a and e), respectively.
In addition, FIG. 13A and FIG. 13B illustrate the results of measuring the glycerol concentration (glycerol efflux, mM) and the free fatty acid concentration (FFA efflux, ×10 mM) in the culture medium on the 10th day (day 12) after the initiation of the differentiation induction in the case of loading no AIM according to the schedule (a) (None), the case of loading AIM according to the schedule (f) (AIM), and the case of loading the FAS inhibitor according to the schedule (f) (C75), respectively.

For series [4], the system named is human mesenchymal stem cells (HMSCs). The series is described as follows: Adipogenesis of human mesenchymal stem cells (HMSCs) with rhAIM. In kind it is cell-based. How it is done: In order to confirm that AIM also acts upon adipogenesis in human cells, the differentiation of human mesenchymal stem cells (HMSCs) (Lonza Walkersville Inc., USA) was stimulated in the presence or absence of recombinant human AIM (rhAIM).
That is, HMSCs were cultured in a mesenchymal stem cell basal medium (MSCBM) (Lonza Walkersville Inc.) for 10 days until the cells became confluent. Subsequently, the adipogenesis of the cells was stimulated by culturing the cells in the presence or absence of rhAIM (10 μg/mL) together with human insulin, MCGS, dexamethasone, indomethacin, and IBMX for 3 days (adipogenesis induction) (reference: Janderrova et al., Obes. Res., 11: 65, 2003). After the stimulation, the cells were cultured in MSCBM in which human insulin and MCGS had been added for an additional 10 days. Then, the cells were collected and stained with oil-red-o.
FIG. 36A, FIG. 36B, and FIG. 36C show the results of observing the cells before the stimulation of adipogenesis (Pre-stimulation), after the stimulation in the absence of rhAIM (rhAIM (−)), and after the stimulation in the presence of 10 μg/mL rhAIM (rhAIM (10 μg/mL)) under the phase contrast microscope, respectively.

These results are taken from US8591913B2, “Methods of decreasing adipose tissue” (Toru Miyazaki, priority 2009, dated 2013).

Entries after “also recorded” stand apart in the source; their conditions may differ.

T2 sequence (P49327 whole entry): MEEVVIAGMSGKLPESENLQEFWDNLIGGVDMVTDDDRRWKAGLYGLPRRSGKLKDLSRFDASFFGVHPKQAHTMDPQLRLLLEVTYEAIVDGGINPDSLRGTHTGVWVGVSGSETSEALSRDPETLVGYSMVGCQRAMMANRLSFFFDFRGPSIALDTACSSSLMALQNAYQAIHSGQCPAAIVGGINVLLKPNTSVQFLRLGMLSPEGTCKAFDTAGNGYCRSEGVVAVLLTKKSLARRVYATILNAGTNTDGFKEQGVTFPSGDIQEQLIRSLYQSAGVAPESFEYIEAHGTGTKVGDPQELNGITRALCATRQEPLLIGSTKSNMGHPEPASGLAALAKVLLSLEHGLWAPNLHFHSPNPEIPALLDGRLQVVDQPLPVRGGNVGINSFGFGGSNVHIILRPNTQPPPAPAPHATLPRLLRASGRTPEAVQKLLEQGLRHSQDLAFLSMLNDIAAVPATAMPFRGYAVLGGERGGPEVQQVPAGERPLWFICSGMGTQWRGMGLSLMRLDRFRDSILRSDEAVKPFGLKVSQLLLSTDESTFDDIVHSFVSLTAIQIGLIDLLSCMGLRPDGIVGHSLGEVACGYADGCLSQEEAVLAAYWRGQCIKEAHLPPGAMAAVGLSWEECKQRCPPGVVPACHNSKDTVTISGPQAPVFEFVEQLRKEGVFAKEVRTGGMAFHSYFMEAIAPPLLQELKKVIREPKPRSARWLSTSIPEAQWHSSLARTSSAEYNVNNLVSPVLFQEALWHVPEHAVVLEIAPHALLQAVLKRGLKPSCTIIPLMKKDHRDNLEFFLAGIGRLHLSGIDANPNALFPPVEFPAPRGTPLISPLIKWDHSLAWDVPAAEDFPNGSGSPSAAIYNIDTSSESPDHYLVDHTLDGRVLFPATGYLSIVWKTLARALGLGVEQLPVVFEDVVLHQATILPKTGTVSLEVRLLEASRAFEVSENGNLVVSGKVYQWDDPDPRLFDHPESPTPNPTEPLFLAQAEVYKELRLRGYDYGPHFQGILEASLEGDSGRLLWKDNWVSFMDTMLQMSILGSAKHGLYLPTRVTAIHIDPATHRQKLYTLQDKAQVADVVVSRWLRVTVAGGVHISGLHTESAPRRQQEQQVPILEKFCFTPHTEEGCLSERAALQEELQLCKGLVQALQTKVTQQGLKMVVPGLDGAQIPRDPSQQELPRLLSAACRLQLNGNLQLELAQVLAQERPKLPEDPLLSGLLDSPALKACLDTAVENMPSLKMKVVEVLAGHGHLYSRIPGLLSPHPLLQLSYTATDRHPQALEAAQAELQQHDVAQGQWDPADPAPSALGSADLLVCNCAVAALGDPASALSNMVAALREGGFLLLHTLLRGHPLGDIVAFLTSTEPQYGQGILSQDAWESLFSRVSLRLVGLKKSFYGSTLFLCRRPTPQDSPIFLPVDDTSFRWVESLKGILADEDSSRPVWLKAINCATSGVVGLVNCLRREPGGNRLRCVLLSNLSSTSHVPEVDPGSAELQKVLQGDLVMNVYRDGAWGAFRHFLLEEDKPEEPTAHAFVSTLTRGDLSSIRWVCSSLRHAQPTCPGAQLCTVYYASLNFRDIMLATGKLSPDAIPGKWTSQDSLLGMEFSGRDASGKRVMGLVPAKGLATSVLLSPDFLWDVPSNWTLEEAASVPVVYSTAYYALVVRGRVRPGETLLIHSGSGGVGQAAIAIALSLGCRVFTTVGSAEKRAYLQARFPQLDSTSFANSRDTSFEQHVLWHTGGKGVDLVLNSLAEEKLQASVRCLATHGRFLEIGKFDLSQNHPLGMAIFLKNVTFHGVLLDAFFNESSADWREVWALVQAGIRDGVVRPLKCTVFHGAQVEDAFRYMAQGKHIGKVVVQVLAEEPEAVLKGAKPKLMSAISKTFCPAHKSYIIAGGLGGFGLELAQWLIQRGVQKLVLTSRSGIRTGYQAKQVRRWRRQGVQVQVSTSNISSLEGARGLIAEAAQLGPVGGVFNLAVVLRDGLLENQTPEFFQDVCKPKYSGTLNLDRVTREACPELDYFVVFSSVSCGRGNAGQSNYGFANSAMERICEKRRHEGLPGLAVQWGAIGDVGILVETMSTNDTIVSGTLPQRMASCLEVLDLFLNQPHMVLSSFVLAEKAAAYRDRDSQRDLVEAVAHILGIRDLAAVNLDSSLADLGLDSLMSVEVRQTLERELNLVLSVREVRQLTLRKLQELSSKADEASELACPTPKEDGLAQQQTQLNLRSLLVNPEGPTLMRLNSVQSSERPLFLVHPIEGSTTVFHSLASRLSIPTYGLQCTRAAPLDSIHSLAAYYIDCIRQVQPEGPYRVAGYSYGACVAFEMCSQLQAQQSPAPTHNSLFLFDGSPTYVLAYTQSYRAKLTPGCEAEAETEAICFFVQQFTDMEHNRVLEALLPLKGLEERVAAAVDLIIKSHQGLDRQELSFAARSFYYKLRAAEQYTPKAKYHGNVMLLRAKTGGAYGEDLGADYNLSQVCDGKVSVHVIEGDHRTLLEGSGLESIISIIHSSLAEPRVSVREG
T1 sequence (P19096 whole entry): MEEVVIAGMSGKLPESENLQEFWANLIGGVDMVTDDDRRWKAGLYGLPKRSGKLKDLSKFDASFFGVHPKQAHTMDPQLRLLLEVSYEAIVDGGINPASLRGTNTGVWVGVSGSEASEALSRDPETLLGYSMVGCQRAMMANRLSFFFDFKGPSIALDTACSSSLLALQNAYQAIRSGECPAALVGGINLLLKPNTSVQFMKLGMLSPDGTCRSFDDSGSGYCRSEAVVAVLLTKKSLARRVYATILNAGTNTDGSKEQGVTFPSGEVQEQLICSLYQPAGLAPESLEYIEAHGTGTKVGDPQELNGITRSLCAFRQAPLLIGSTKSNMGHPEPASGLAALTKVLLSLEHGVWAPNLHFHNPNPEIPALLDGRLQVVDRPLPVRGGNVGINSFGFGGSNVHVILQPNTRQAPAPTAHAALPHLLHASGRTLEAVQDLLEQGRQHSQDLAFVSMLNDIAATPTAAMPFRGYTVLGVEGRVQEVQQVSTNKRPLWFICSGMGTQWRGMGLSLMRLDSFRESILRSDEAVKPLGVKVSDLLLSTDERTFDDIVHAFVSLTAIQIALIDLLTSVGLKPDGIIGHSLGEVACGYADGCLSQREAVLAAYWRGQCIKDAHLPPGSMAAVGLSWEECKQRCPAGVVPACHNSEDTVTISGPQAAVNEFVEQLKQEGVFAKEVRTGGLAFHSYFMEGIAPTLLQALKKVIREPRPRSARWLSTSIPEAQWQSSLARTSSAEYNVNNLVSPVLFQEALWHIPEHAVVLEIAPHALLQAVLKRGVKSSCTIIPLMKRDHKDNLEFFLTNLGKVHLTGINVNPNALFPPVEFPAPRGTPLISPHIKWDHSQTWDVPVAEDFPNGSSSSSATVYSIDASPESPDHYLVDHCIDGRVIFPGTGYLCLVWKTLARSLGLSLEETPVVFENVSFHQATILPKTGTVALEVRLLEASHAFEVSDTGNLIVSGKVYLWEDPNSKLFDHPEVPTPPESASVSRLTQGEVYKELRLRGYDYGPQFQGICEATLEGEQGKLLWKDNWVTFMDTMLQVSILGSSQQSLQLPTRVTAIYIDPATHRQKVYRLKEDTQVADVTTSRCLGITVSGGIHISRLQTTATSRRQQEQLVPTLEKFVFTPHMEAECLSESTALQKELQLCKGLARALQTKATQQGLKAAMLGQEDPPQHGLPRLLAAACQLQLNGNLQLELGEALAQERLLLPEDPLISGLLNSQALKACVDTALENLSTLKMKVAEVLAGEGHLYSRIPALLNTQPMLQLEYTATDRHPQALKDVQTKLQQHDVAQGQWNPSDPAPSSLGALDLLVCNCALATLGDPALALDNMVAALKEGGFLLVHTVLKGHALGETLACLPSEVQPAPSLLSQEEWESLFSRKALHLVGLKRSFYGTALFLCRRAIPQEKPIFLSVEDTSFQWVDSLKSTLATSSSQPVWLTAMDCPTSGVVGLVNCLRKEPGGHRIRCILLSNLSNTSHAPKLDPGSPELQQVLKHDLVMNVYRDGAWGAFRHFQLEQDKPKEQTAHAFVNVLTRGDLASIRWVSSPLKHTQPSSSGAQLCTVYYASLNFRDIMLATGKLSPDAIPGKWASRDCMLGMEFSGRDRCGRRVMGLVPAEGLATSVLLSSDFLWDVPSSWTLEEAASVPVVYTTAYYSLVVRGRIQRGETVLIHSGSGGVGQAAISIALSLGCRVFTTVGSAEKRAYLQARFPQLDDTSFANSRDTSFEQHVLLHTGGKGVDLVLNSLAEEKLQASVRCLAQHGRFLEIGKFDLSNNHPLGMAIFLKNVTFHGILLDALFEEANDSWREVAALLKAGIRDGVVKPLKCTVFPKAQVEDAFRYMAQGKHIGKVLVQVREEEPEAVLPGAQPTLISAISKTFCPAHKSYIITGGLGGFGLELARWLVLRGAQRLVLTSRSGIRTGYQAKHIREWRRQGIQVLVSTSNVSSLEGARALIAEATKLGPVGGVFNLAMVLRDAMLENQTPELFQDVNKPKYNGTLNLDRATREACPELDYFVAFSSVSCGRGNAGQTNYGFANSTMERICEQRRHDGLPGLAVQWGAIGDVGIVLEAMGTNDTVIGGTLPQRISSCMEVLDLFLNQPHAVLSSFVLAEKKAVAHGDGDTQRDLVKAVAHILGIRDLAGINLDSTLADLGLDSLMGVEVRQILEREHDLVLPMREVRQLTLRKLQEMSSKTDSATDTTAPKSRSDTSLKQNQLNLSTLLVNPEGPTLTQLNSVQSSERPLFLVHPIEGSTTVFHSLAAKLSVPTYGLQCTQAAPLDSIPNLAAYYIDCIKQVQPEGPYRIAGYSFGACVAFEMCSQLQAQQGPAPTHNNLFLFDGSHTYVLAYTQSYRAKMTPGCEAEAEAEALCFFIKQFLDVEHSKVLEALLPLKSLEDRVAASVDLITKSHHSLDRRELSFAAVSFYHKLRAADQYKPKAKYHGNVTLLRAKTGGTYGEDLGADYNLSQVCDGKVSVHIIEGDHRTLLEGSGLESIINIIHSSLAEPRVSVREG

For the molecule `C=C1C(=O)OC(CCCCCCCC)C1C(=O)O` (stereo not shown) [C75], in the series with mice, the “amount of neuropeptide Y (NPY) produced in the hypothalamus” value is “reduces”, the appetite result was “remarkable loss of appetite” and the body weight entry is reported as “body weight loss; also recorded: totally accelerated”. Also, the “levels of reduction of the FAS enzyme activity, C75 compared with AIM” value on FAS [1] is “almost the same”.

B1: HA-AIM: AIM (mouse AIM) fused with an HA-tag (protein)
chain: ESPTKVQLVGGAHRCEGRVEVEHNGQWGTVCDDGWDRRDVAVVCRELNCGAVIQTPRGASYQPPASEQRVLIQGVDCNGTEDTLAQCELNYYVFDCSHEEDAGAQCENPDSDLLFIPEDVRLVDGPGHCQGRVEVLHQSQWSTVCKAGWNLQVSKVVCRQLGCGRALLTYGSCNKNTQGKGPIWMGKMSCSGQEANLRSCLLSRLENNCTHGEDTWMECEDPFELKLVGGDTPCSGRLEVLHKGSWGSVCDDNWGEKEDQVVCKQLGCGKSLHPSPKTRKIYGPGAGRIWLDDVNCSGKEQSLEFCRHRLWGYHDCTHKEDVEVICTDFDV
modifications: left off: small tags and cut ends
notes: AIM (mouse AIM) fused with an HA-tag
B1: the “co-precipitation with FLAG-tagged FAS” value is reported as “co-precipitation” with FAS [2] and “co-precipitated mutually” with FAS [2] (listed as mouse AIM tagged with HA).

B2: human AIM: protein consisting of the amino acid sequence shown in SEQ ID NO: 1; recombinant, purified from HEK293T culture supernatant (protein)
chain: MALLFSLILAICTRPGFLASPSGVRLVGGLHRCEGRVEVEQKGQWGTVCDDGWDIKDVAVLCRELGCGAASGTPSGILYEPPAEKEQKVLIQSVSCTGTEDTLAQCEQEEVYDCSHDEDAGASCENPESSFSPVPEGVRLADGPGHCKGRVEVKHQNQWYTVCQTGWSLRAAKVVCRQLGCGRAVLTQKRCNKHAYGRKPIWLSQMSCSGREATLQDCPSGPWGKNTCNHDEDTWVECEDPFDLRLVGGDNLCSGRLEVLHKGVWGSVCDDNWGEKEDQVVCKQLGCGKSLSPSFRDRKCYGPGVGRIWLDNVRCSGEEQSLEQCQHRFWGFHDCTHQEDVAVICSG
modifications: human
notes: recombinant, purified from HEK293T culture supernatant
Regarding B2, the “differentiation of 3T3-L1 cells derived from mice / differentiation inhibitory function” value in the series with 3T3-L1 preadipocytes was “inhibited; also recorded: similarly exerted”. The “lipolysis induction function in adipocytes derived from mice” value in series [3] is reported as “similarly exerted”. For the same molecule, in series [4] (rhAIM 10 μg/mL during 3 days adipogenesis induction, oil-red-o), the “differentiation of HMSCs” value is reported as “dramatically inhibited”. Further, the “mRNA level of Glut-4” value in series [4] (rhAIM 10 μg/mL, RT-PCR, compared with absence of rhAIM) was “remarkably decreased”.
